Reference: paper PMC6648332 (Nucleic Acids Research, 2019)

Target: the molecule itself
Assay: SEC

B1: 3′-5′ exonuclease domain of human EXD2 (residues 76−295, EXD2-exo) (domain or fragment, UniProt Q9NVH0 76-295, looked up)
chain: KAKVVTVSQEAEWDQIEPLLRSELEDFPVLGIDCEWVNLEGKASPLSLLQMASPSGLCVLVRLPKLICGGKTLPRTLLDILADGTILKVGVGCSEDASKLLQDYGLVVRGCLDLRYLAMRQRNNLLCNGLSLKSLAETVLNFPLDKSLLLRCSNWDAETLTEDQVIYAARDAQISVALFLHLLGYPFSRNSPGEKNDDHSSWRKVLEKCQGVVDIPFRSK
With B1 the “stoichiometry N” value was 2.
